We go through 17 molecules from US20250026814A1 (UNIVERSITY OF CHICAGO, published 2025).

The labels stand for the following.
B1: S728-537 (antibody, V domains shown)
VH: QVQLVQSGAEVKKPGASVKVSCKTSGYTFTGFYLHWLRQAPGQGLEWMGRINPNTGDTDYAQKFQGRVTMTRDTSISTAYMELSRLRADDTAVYYCARTPGQTRQLFVGTNVLDVWGQGTMVTVSS
VL: DIQMTQSPSSVSASVGDRVTITCRASQGISSWLAWYQQKPGKAPKVLIFAASSLQSGVPSRFSGSGSGTDFTLTITSLQPEDFATYFCQQTNSFPPTFGGGTKVEIK
B2: S144-69 (antibody, V domains shown)
VH: EVQLVQSGAEVKKPGESLKISCKGSGYSFTSYWIGWVRQMPGKGLEWMGIIYPGDSDTRYSPSFQGQVTISADKSITTAYLQWSSLKASDTAMYYCARTQTTNWFDSWGQGTLVTVSS
VL: DIQMTQSPSTLSVSVGDRVTITCRASQSVSSWLAWYQQKPGKAPKLLIYDASSLESGVPSRFSGSGSGTEFTLTISSLQPDDFATYYCQQYNSFYTFGQGTKLEIK
B3: S728-1157 (antibody, V domains shown)
VH: EVQLVESGGGLVQPGGSLRLSCAASGLLVSRNYMNWVRQAPGKGLEWVSIIYSGGSTFYADSVEGRFTISRDESKNTLYLQMNSLRTDDTAVYYCARDLSDYGGIDCWGQGTLVTVSS
VL: YELTQPLSVSMALGQTARISCGGDNVGSQNVHWYQQRPGQAPVLVIYRDSNRPSGIPERFSGSKSGNTATLTISRAQAGDEADYYCQVWDSSTVAFGGGTKLTVL
B4: S728-430 (antibody, V domains shown)
VH: EVQLVESGGGLIQPGGSLRLSCAASGFTVSSNYMSWVRQAPGKGLEWVSVIYSGGSTYYADSVKGRFTISRDNSKNTLYLQMNSLRAEDTAVYYCARTPRGSRRGAFDIWGQGTMVTVSS
VL: not shown
B5: S144-509 (antibody, V domains shown)
VH: EVQLVQSGAEVKKPGESLKISCKGSAYTFTTYWIGWVRQMPGKGLEWMGIIYPGDSDTRYSPSFQGQVTISADKSISTAYLQWSSLKASDTAMYYCARLLLVAGPFDYWGQGTLVTVSS
VL: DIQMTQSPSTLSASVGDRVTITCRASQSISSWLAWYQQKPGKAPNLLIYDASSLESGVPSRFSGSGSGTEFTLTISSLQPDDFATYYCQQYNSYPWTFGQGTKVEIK
B6: S728-1690 (antibody, V domains shown)
VH: QVQLVQSGAEVVKPGSSVKVSCKASGGTFTRYAISWVRQAPGQGPEWMGRIIPMFGIANYAQRFQGRVTMTADKSTSTAYMELSSLRSEDTAVYYCATCQYYYDSSGYGSLDYWGQGTQVTVSS
VL: EIVLTQSPGTLSLSPGERVTLSCRASQSISSNFLAWYQQKPGQAPRLLISGASSRATGIPDRFSGGGSGTDFTLTISRLEPEDFAVYYCQQYHSSPRTFGQGTKVEIK
B7: S24-1384 (antibody, V domains shown)
VH: EVQLVESGGGLVQPGGSLRLSCAVSGFTFSSYSMNWVRQAPGKGLEWVSYISSSSSIIYYADSVKGRFTISRDNAKNSLYLQMNSLRAEDTAVYYCARDFLDYSRSYSYGMDVWGQGTTVTVSS
VL: SYVLTQPPSVSVAPGQTARITCGGDNIGSKNVHWYQQKPGQAPVLVVFDDSDRPSGIPERFSGSNSGNTATLTISRVEAGDEADYYCQVWDSSSDHYVVFGGGTKLTVL
B8: S144-466 (antibody, V domains shown)
VH: EVQLVQSGAEVKKPGESLKISCKGSGYRFTRYWIGWVRQMPGKGLEWMGIIYLGDSETRYSPSFQGQVTISADNSISTAYLQWSSLKASDTAMYYCARSSNWNYGDYWGQGTLVTVSS
VL: DIQMTQSPSTLSASVGDRVTITCRASQSITSWLAWYQQKSGKAPKLLIYDASSLESGVPSRFSGSGSGTEFTLTISSLQPDDFATYYCQQYNSYPWTFGQGTKVEIK
B9: S564-152 (antibody, V domains shown)
VH: QVQLVESGGGVVQPGRSLRLSCAASGFTFSYYGMHWVRQAPGKGLEWVAVIWYDGSNKHYADSVKGRFTISRDNSKNTLYLQMNSLRAEDTAVYYCAKNAAPYCSGGSCYGTYFDYWGQGTLVTVSS
VL: DIQMTQSPSSLSASVGDRVTITCQASQDINNYLNWYQQKPGKAPKLLIYDASNLETGVPSRFSGSGSGTDFTFTISSLQPEDIATYYCQQYDNVPPHTFGQGTKLEIK
B10: S728-2036 (antibody, V domains shown)
VH: QVHLVQSGAEIRKPGASVMVSCKASGYTFTDYYIHWVRQAPGQGLEWMGWINPNSGGTNYAQKFQGRVTMTRDTSIRTAYMELSRLRSDDAAVYYCAREGISMLRGVRSWFDPWGQGTLVTVSS
VL: QSALTQPASVSGSPGQSITISCTGTSSDVGSYNLVSWYQQHPGKVPKLIIYEVTKRPSGVSNRFSGSKSGNTASLTISGLQTEDEADYYCCSYAGFSAWVFGGGTKLTVL
B11: S728-1981 (antibody, V domains shown)
VH: QVQLVQSGAEVKKPGASVKVSCKTSGYTFTNYFMHWVRQAPGQGLEWMGIINPSGGSASYAQKFQGRITMTSDTSTSTVYMELSSLRSEDTAVYYCAREDIIVVVPARPLDYWGHGTLVTVSS
VL: EIVLTQSPATLSLSPGERATLSCRASQSFSNYLAWYQQKPGQAPRLLIYDASNRATGIPARFSGSGSGTDFTLTISSLEPEDFAVYYCQQRSNWPPLLTFGGGTKVEIK
B12: S728-537 (antibody, V domains shown)
VH: B1 VH
VL: B1 VL
B13: S728-1157 (antibody, V domains shown)
VH: B3 VH
VL: B3 VL
B14: S728-1261 (antibody, V domains shown)
VH: QVQLQESGPGLVKPSGTLSLTCAVSGGSISNNNWWIWVRQPPGKGLEWIGEIHHSGSTDYNPSLKSRVTISIDKSKNQFSLRLSSVTAADTAVYYCARKPEPYYYYYYMDVWGKGTTVTVSS
VL: ETVLTQSPGTLSLSPGERATLSCRASQSVSSSYITWYQQKPGQAPRLLIYGASSRATGIPDRFSGSGSGTDFTLTISRLEPEDFAVYYCQQYRSPWGLTFGPGTKVDIK
B15: S728-430 (antibody, V domains shown)
VH: B4 VH
VL: not shown
B16: S728-369 (antibody, V domains shown)
VH: QVQLQESGPGLVKPSQTLSLTCSVSGGSISSGGYYWSWIRQHPGKGLEWIGYMYYSGSTYYNPSLKSRVTIFVDTSKNHFSLKLTSVTAADTAVYYCARDSYENYYGSGSLEPNYHHYNMDVWGQGTTVTVSS
VL: DVQMTQSPSTLSASIGDRVTITCRASQSISGWLAWYQQRPGKAPKLLIYRASSLDFGVPSRFSGNGSGTEFTLTISSLQPDDFATYYCQQYHTYRTFGQGTKVEVK
B17: S728-209 (antibody, V domains shown)
VH: QITLKESGPTLVKPTQTLTLTCTLSGFSLSTSGVSVGWIRQPPGKALEWLAVIFWDDDKRYNPSLKSRLTIAKDTSKSQVVLTMTNLDPVDTGTYYCVSGSSYYYYYYMDVWGKGTTVTVSS
VL: DIQMTQSPSSVSASIGDRVTITCRASQDISTWLAWYQQKPGRAPNLLIYGASSLQSGVPSRFSGSGSGTDFTLTISSLQPEDFATYYCQQATSFPLTFGGGTKVEIK

The target of the first test is SARS-CoV-1 RBD WT (SARS-CoV-1, UniProt P59594 306-527). The test is described as follows: ELISA.
Take B1: the binding result was “no binding (tested: 10 ug/ml top of dilution series)”.

For the molecule B2, the binding result is “binds”.

With B3, the binding result was “no binding”.

For B4, the binding result is “no binding (tested: 10 ug/ml top of dilution series)”.

As to B5, the binding result is “binds”.

As to B6, the binding result is on record as “no binding (tested: 10 ug/ml top of dilution series)”.

As to B7, the binding result is recorded as “binds”.

Turning to B8, the binding result is reported as “binds”.

Regarding B9, the binding result is recorded as “binds”.

In a further test the target is T1, MERS-CoV RBD WT (MERS-CoV, UniProt K9N5Q8 367-606).
T1 sequence: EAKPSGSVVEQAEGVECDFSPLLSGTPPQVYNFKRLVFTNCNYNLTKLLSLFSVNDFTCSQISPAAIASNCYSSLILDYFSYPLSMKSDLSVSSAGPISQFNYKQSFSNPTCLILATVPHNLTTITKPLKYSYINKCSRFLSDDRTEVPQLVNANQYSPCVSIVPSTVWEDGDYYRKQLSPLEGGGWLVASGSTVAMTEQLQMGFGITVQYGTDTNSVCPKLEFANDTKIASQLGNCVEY
The test is described as follows: ELISA. (In general: An ELISA detects its analyte on a solid surface through an enzyme-linked reagent.)
For the molecule B1, the binding result is reported as “no binding (tested: 10 ug/ml top of dilution series)”.

As for B4, the binding result is listed as “no binding (tested: 10 ug/ml top of dilution series)”.

Turning to B6, the binding result is recorded as “no binding (tested: 10 ug/ml top of dilution series)”.

The target of another test is T2, S1 monomeric WT (SinoBiological) (SARS-CoV-2, UniProt P0DTC2 16-685).
T2 construct: domain: S1
The test is described as follows: ELISA.
Turning to B10, the binding result is listed as “binds”.

Regarding B11, the binding result is “binds”.

A further test concerns the target T3, SARS-CoV-2 spike receptor-binding domain (RBD), WT (SARS-CoV-2, UniProt P0DTC2 319-541).
T3 construct: domain: RBD
The test is described as follows: epitope specificity column of the table of RBD-reactive mAbs (ELISA).
For the molecule B12, the binding result was “binds”.

On to B13, for which the binding result is “binds”.

In the case of B14, the binding result is “binds”.

With B15, the binding result was “binds”.

For B16, the binding result is “binds”.

Take B17: the binding result is “binds”.
